Measured values taken from the supplement of paper PMC10567573.

B1: PHTF1 (parent)
chain: RVKLISNKGTETDNDPSCVHPIIK

Variants of: B1
Test: protein stability index of a GFP-peptide fusion (GPS, HEK-293T) (PSI 1-6); higher = more stable
Conditions: c terminus: a fixed tail appended
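Note: lentivirally expressed fusions sorted by FACS into six bins by GFP to DsRed ratio, PSI derived from sequencing read proportions per bin multiplied by bin number.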

Protein stability index, by site and new letter:
G9: R 3.54 | Q 4.31 | H 4.03 | W 2.8 | D 4.36 | N 4.17 | T 4.27 | I 3.25 | M 3.75 | F 3.19 | V 4.18 | S 4.21 | P 3.95 | L 3.64 | K 3.98 | A 4.12 | C 3.56 | Y 3.44 | E 4.23
I5: D 4.7 | H 4.3 | N 4.41 | V 4 | P 4.8 | R 3.86 | Q 4.8 | E 4.63 | L 4.4 | F 4.02 | G 4.09 | M 4.3 | C 3.97 | Y 3.75 | S 4.3 | A 4.11 | T 4.25 | W 3.6 | K 4.01
K3: L 2.72 | E 4.64 | H 3.83 | Q 4.07 | M 3.67 | I 2.81 | V 3.29 | S 4.33 | W 2.56 | R 3.92 | T 4.19 | P 4.55 | N 4.32 | G 4.31 | F 3.29 | Y 2.86 | C 3.52 | A 4.38 | D 4.48
R1: M 3.66 | T 4.2 | A 4.57 | K 4.05 | I 3.16 | G 4.15 | E 4.14 | S 4.56 | F 2.21 | Q 4.45 | C 3.93 | H 4.12 | Y 2.79 | P 4.44 | V 3.41 | W 2.81 | D 4.74 | N 4.63 | L 3.51
E11: N 4.04 | G 3.57 | T 3.82 | I 3.24 | P 3.95 | L 3.41 | W 2.43 | D 4.05 | Y 3 | V 3.16 | M 3.13 | H 3.41 | S 3.55 | F 2.71 | Q 3.57 | A 4.04 | R 3.45 | C 3.69 | K 3.7
D15: E 3.94 | A 3.8 | K 3.79 | N 4.06 | R 3.45 | S 3.9 | G 3.67 | H 3.64 | F 2.87 | V 3.68 | L 3.27 | Y 3 | C 3.09 | P 4.1 | W 2.04 | Q 3.82 | T 3.56 | M 3.62 | I 3.29
K8: A 4.1 | Q 4.7 | D 4.45 | I 3.78 | M 3.15 | H 3.94 | T 4.33 | V 3.88 | F 3.56 | P 3.64 | G 4.62 | E 4.42 | W 2.89 | C 3.04 | N 3.96 | S 4.21 | Y 3.22 | R 3.95 | L 3.33
P16: L 3.38 | Q 4.03 | F 3.48 | H 3.88 | W 2.37 | K 4.06 | D 4.13 | N 3.68 | Y 3.13 | C 3.82 | A 3.98 | G 4.55 | V 3.97 | R 3.96 | T 3.94 | M 3.96 | E 4.18 | I 3.67 | S 4.4
N7: F 2.92 | P 4.09 | T 4 | E 4.2 | G 3.96 | D 4.26 | I 3.6 | C 3.64 | H 3.79 | A 4.02 | K 4.31 | R 3.47 | Q 4.09 | L 3.36 | S 4.22
